In patent publication US20200262877A1, “ION CHANNEL-BINDING PEPTIDES AND METHODS OF USE THEREOF” (priority 2017, published 2020):

Columns and labels:
α3β4 = target: T1, α3β4 (Homo sapiens, UniProt P30926+P32297); test: Ion channel panel (IonWorks Barracuda): α3β4; format: cell-based; details: 100% = no change, <100% = inhibition
T1 construct: host or cells: HEK293 or CHO
In short: (§1)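 Transfected HEK293 or CHO cells were exposed for at least 5 min to peptides at 200 nM and 20 μM final, tested in duplicate, in HEPES-buffered physiological saline. Activation was taken as peptide-plus-agonist current over control current ×100, and inhibition as 1 minus that ratio ×100. Each channel's control was its own reference compound.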

α4β2 = target: T2, α4β2 (Homo sapiens, UniProt P17787+P43681); test: Ion channel panel (IonWorks Barracuda): α4β2; format: cell-based; details: 100% = no change, <100% = inhibition
T2 construct: host or cells: HEK293 or CHO
In short: as §1

5HT3a = target: T3, 5HT3a (Homo sapiens, UniProt P46098); test: Ion channel panel (IonWorks Barracuda): 5HT3a; format: cell-based
T3 construct: host or cells: HEK293 or CHO
T3 sequence (P46098 whole entry, looked up): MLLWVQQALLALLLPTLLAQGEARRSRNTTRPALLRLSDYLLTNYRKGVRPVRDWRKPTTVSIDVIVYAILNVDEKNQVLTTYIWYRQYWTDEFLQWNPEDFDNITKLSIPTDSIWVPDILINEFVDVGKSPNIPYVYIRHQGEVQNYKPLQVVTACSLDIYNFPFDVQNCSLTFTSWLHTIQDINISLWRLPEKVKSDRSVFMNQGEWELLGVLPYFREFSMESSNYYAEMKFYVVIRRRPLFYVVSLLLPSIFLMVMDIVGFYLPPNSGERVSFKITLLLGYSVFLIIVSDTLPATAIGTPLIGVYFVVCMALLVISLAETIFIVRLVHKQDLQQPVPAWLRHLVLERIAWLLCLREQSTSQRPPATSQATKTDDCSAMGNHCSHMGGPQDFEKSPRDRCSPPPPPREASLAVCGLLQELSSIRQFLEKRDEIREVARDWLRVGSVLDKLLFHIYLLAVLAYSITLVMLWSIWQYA
In short: as §1

Kv1.2 = target: T4, Kv1.2 (Homo sapiens, UniProt P16389); test: cell-based; format: cell-based; details: 100% = no change, <100% = inhibition
T4 construct: host or cells: HEK293 or CHO
In short: as §1

Kv1.1 = target: T5, Kv1.1 (Homo sapiens, UniProt Q09470); test: cell-based; format: cell-based; details: 100% = no change, <100% = inhibition
T5 construct: host or cells: HEK293 or CHO
In short: as §1

Kv1.3 = target: T6, Kv1.3 (Homo sapiens, UniProt P22001); test: cell-based; format: cell-based; details: 100% = no change, <100% = inhibition
T6 construct: host or cells: HEK293 or CHO
In short: as §1

Nav1.5 = Nav1.5 (Homo sapiens, UniProt Q14524); test: in vitro; details: 100% = no change; for Activity of Nav1.5 with peptide, expressed as a percentage of the reference compound: peptide at 0.2 μM; for Activity of Nav1.5 with peptide (percentage of the reference compound): peptide at 20 μM
In short: as §1

hERG = hERG (Homo sapiens, UniProt Q12809); test: in vitro; details: 100% = no change, <100% = inhibition
In short: as §1

NR2B = target: T7, NR2B (Homo sapiens, UniProt Q13224); test: Ion channel panel (IonWorks Barracuda): NR2B; format: cell-based; details: 100% = no change, <100% = inhibition
T7 construct: host or cells: HEK293 or CHO
In short: as §1

TRPV1 = target: T8, TRPV1 (Homo sapiens, UniProt Q8NER1); test: Ion channel panel (IonWorks Barracuda): TRPV1; format: cell-based; details: 100% = no change, <100% = inhibition
T8 construct: host or cells: HEK293 or CHO
In short: as §1

Cav2.1 = target: T9, Cav2.1 (Homo sapiens, UniProt O00555); test: cell-based; details: 100% = no change, <100% = inhibition
T9 construct: host or cells: HEK293 or CHO
In short: as §1

Kv2.1 = target: T10, Kv2.1 (Homo sapiens, UniProt Q14721); test: cell-based; details: 100% = no change, <100% = inhibition
T10 construct: host or cells: HEK293 or CHO
In short: as §1

Cav2.2 = target: T11, Cav2.2 (Homo sapiens, UniProt Q00975); test: cell-based; details: 100% = no change, <100% = inhibition
T11 construct: host or cells: HEK293 or CHO
In short: as §1

NR2A = target: T12, NR2A (Homo sapiens, UniProt Q12879); test: Ion channel panel (IonWorks Barracuda): NR2A; format: cell-based; details: 100% = no change, <100% = inhibition
T12 construct: host or cells: HEK293 or CHO
In short: as §1

Nav1.7 = target: T13, Nav1.7 (Homo sapiens, UniProt Q15858); test: cell-based; format: cell-based; details: 100% = no change; for Activity of Nav1.7 with peptide, expressed as a percentage of the reference compound: peptide at 0.2 μM; for Activity of Nav1.7 with peptide (percentage of the reference compound): peptide at 20 μM
T13 construct: host or cells: HEK293 or CHO

GABA = test: Ion channel panel (IonWorks Barracuda): GABA; format: cell-based; details: 100% = no change, <100% = inhibition
In short: as §1

TRPA1 = target: T14, TRPA1 (Homo sapiens, UniProt O75762); test: Ion channel panel (IonWorks Barracuda): TRPA1; format: cell-based; details: 100% = no change, <100% = inhibition
T14 construct: host or cells: HEK293 or CHO
In short: as §1

Kir2.1 = target: T15, Kir2.1 (Homo sapiens, UniProt P63252); test: Ion channel panel (IonWorks Barracuda): Kir2.1; format: cell-based; details: 100% = no change, <100% = inhibition
T15 construct: host or cells: HEK293 or CHO
In short: as §1

[1] = first of two Nav1.5 columns (probably TP1)
[2] = second of two Nav1.5 columns (probably TP2)
[3] = first of two Nav1.7 columns (probably TP1)
[4] = second of two Nav1.7 columns (probably TP2)

Nav1.5, sequence (Q14524 whole entry): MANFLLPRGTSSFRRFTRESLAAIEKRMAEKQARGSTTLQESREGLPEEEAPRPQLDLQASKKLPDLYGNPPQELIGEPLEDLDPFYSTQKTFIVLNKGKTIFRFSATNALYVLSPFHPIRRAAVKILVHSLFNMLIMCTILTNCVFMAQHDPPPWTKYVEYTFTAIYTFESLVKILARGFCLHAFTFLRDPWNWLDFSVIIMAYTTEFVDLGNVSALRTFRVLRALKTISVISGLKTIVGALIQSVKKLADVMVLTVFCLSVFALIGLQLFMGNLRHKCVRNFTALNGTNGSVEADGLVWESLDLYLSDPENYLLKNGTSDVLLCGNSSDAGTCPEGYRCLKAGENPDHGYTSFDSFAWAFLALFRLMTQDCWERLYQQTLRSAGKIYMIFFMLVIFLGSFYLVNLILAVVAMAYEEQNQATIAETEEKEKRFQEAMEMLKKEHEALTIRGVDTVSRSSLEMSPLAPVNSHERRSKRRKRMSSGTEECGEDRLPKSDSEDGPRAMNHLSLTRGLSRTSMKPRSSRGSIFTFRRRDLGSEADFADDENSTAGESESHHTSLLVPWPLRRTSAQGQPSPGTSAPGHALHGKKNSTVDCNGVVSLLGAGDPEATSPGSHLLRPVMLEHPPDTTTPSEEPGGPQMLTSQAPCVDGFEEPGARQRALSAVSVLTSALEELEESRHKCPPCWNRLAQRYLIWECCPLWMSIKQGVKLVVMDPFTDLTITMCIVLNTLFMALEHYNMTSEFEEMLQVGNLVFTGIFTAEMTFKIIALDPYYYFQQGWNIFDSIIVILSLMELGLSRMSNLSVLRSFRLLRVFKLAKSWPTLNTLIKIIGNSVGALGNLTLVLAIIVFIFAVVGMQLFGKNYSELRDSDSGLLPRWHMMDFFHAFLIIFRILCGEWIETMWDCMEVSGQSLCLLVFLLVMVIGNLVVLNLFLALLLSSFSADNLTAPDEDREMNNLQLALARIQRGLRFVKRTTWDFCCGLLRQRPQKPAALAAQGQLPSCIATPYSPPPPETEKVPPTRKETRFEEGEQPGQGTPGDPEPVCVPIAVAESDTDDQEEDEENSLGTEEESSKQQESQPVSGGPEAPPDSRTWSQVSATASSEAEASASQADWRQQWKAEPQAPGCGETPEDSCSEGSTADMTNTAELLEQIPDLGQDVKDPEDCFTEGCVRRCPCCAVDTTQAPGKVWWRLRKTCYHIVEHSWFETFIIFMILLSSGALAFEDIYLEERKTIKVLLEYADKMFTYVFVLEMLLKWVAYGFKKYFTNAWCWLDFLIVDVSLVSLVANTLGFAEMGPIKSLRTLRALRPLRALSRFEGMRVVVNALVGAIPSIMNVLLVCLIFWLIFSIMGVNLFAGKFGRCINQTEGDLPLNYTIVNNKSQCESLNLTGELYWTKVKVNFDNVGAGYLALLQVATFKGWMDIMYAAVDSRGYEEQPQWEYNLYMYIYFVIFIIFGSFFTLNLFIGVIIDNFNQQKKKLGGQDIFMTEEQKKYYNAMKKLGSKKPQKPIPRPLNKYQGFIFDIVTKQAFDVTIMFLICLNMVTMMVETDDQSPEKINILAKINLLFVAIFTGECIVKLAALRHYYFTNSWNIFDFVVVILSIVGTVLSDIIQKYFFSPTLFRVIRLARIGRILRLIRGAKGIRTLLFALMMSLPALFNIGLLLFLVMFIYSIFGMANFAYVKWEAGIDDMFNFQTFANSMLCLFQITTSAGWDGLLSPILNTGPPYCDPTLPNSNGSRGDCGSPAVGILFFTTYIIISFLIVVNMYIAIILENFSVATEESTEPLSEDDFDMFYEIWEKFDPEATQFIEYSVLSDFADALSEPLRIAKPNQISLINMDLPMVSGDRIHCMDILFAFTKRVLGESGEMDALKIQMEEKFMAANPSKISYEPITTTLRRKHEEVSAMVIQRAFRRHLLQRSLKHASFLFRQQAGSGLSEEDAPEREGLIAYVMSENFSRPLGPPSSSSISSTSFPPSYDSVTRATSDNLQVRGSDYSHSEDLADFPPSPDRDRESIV
T13 sequence (Q15858 whole entry): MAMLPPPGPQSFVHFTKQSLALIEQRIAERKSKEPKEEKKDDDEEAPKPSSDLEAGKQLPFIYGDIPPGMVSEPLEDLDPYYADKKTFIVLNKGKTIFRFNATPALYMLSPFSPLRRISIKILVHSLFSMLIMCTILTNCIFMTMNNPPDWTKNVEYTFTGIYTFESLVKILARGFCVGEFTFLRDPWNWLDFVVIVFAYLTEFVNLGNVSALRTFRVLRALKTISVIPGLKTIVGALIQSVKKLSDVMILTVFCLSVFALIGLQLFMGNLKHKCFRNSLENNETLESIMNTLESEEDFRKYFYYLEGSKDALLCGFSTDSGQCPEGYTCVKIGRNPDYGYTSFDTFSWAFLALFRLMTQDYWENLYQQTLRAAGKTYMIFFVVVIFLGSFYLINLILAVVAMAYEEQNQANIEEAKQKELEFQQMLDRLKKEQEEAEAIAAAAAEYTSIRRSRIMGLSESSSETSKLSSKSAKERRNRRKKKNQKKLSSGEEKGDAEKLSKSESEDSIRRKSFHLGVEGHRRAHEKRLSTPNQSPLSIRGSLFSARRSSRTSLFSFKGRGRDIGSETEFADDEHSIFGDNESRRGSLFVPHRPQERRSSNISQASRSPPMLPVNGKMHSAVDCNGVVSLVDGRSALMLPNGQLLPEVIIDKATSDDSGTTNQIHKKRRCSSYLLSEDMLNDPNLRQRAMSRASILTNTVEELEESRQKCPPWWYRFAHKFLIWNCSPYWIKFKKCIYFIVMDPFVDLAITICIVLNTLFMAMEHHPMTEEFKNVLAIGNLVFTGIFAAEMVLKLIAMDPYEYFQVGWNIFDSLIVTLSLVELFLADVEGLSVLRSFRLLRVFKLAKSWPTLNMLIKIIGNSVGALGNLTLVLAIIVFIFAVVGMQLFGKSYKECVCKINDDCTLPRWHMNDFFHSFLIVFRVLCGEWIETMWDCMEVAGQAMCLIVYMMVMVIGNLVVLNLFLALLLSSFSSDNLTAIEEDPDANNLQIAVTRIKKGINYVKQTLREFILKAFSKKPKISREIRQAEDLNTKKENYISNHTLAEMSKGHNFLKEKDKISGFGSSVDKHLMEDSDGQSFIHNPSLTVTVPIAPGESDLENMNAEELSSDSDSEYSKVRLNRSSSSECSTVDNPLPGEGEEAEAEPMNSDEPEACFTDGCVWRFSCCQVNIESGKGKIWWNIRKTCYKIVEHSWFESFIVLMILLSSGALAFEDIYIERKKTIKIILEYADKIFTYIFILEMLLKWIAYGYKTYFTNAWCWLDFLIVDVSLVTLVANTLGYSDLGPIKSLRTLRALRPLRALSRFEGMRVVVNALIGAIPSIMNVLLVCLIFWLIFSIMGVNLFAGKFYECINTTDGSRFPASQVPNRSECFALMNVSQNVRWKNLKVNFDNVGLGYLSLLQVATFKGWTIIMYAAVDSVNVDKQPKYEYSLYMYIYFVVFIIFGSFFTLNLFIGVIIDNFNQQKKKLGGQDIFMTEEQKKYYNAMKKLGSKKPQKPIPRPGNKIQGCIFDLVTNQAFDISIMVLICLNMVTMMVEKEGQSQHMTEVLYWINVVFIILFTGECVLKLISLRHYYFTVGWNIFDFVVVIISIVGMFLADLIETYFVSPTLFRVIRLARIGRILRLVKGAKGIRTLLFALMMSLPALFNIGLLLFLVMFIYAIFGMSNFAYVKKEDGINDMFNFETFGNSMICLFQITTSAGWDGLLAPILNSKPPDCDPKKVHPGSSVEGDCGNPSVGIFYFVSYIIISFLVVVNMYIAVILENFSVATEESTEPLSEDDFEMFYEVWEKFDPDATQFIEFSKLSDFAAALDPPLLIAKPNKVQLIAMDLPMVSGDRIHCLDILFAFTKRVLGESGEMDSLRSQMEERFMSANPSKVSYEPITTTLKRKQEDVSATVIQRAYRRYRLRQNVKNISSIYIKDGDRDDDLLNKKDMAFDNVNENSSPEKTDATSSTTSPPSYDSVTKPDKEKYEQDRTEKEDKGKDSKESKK
T6 sequence (P22001 whole entry): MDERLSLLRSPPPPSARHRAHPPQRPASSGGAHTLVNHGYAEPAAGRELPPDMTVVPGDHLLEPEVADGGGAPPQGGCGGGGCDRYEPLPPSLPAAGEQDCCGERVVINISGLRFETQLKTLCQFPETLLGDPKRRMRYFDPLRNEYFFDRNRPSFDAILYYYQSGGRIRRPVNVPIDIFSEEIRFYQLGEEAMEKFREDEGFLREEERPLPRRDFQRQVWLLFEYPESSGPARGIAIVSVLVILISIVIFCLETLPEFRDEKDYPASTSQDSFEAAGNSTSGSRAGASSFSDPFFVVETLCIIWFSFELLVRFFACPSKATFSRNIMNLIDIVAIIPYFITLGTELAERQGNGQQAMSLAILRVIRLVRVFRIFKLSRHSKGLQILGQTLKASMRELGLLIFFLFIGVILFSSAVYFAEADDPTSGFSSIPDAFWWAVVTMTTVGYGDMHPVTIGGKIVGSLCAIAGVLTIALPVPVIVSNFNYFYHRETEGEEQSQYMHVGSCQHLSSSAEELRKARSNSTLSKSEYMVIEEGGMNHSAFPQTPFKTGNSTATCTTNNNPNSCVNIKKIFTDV
T5 sequence (Q09470 whole entry): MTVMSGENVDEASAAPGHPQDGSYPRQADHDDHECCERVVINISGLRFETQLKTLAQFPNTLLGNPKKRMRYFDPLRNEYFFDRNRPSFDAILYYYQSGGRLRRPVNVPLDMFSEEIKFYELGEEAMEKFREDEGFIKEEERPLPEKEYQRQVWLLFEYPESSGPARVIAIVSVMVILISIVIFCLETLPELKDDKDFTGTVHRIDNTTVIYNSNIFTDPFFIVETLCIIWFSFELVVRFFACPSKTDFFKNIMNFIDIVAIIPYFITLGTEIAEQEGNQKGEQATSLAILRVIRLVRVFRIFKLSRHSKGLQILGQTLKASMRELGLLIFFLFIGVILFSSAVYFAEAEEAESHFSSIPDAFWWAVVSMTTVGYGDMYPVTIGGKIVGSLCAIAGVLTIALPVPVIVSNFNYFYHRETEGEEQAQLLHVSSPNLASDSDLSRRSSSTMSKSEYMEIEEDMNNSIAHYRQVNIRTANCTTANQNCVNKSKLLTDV

For “26 (GSVVIGQRCYRSPDCYSACKKLVGKATGKCTNGRCDC) [compound 26]”, the “Activity of a3b4 with peptide, expressed as a percentage of the reference compound” value (α3β4; peptide at 0.2 μM) was 88%, the “Activity of a3b4 with peptide (percentage of the reference compound)” value (α3β4; peptide at 20 μM) was 91% and the “Activity of a4b2 with peptide, expressed as a percentage of the reference compound” value (α4β2; peptide at 0.2 μM) was 85%. For the same substance, the “Activity of a4b2 with peptide (percentage of the reference compound)” value (α4β2; peptide at 20 μM) was 89%, the “Activity of 5HT3a with peptide (percentage of the reference compound)” value (5HT3a) was 96% and the “Activity of 5HT3a with peptide, expressed as a percentage of the reference compound” value (5HT3a) was 82%. The “Activity of Kv1.2 with peptide, expressed as a percentage of the reference compound” value (Kv1.2; peptide at 0.2 μM) was 79%, the “Activity of Kv1.2 with peptide (percentage of the reference compound)” value (Kv1.2; peptide at 20 μM) was 47% and the “Activity of Kv1.1 with peptide, expressed as a percentage of the reference compound” value (Kv1.1; peptide at 0.2 μM) was 66%. For the same substance, the “Activity of Kv1.1 with peptide (percentage of the reference compound)” value (Kv1.1; peptide at 20 μM) was 85%, the “Activity of Kv1.3 with peptide, expressed as a percentage of the reference compound” value (Kv1.3; peptide at 0.2 μM) was 94% and the “Activity of Kv1.3 with peptide (percentage of the reference compound)” value (Kv1.3; peptide at 20 μM) was 77%. For the same substance, the “Activity of Nav1.5 with peptide, expressed as a percentage of the reference compound” value (Nav1.5; [1]) was 92%, the “Activity of Nav1.5 with peptide, expressed as a percentage of the reference compound” value (Nav1.5; [2]) was 91% and the “Activity of Nav1.5 with peptide (percentage of the reference compound)” value (Nav1.5; [1]) was 90%. The “Activity of Nav1.5 with peptide (percentage of the reference compound)” value (Nav1.5; [2]) was 94%, the “Activity of hERG with peptide, expressed as a percentage of the reference compound” value (hERG; peptide at 0.2 μM) was 80% and the “Activity of hERG with peptide (percentage of the reference compound)” value (hERG; peptide at 20 μM) was 74%. The “Activity of NR2B with peptide, expressed as a percentage of the reference compound” value (NR2B; peptide at 0.2 μM) was 86%, the “Activity of NR2B with peptide (percentage of the reference compound)” value (NR2B; peptide at 20 μM) was 79% and the “Activity of TRPV1 with peptide, expressed as a percentage of the reference compound” value (TRPV1; peptide at 0.2 μM) was 116%. For the same substance, the “Activity of TRPV1 with peptide (percentage of the reference compound)” value (TRPV1; peptide at 20 μM) was 92%, the “Activity of Cav2.1 with peptide, expressed as a percentage of the reference compound” value (Cav2.1; peptide at 0.2 μM) was 115% and the “Activity of Cav2.1 with peptide (percentage of the reference compound)” value (Cav2.1; peptide at 20 μM) was 85%. For the same substance, the “Activity of Kv2.1 with peptide, expressed as a percentage of the reference compound” value (Kv2.1; peptide at 0.2 μM) was 98%, the “Activity of Kv2.1 with peptide (percentage of the reference compound)” value (Kv2.1; peptide at 20 μM) was 102% and the “Activity of Cav2.2 with peptide, expressed as a percentage of the reference compound” value (Cav2.2; peptide at 0.2 μM) was 103%. The “Activity of Cav2.2 with peptide (percentage of the reference compound)” value (Cav2.2; peptide at 20 μM) was 121%, the “Activity of NR2A with peptide, expressed as a percentage of the reference compound” value (NR2A; peptide at 0.2 μM) was 113% and the “Activity of NR2A with peptide (percentage of the reference compound)” value (NR2A; peptide at 20 μM) was 114%. The “Activity of Nav1.7 with peptide, expressed as a percentage of the reference compound” value (Nav1.7; [3]) was 81%, the “Activity of Nav1.7 with peptide, expressed as a percentage of the reference compound” value (Nav1.7; [4]) was 74% and the “Activity of Nav1.7 with peptide (percentage of the reference compound)” value (Nav1.7; [3]) was 73%. The “Activity of Nav1.7 with peptide (percentage of the reference compound)” value (Nav1.7; [4]) was 60%, the “Activity of GABA with peptide, expressed as a percentage of the reference compound” value (GABA; peptide at 0.2 μM) was 117% and the “Activity of GABA with peptide (percentage of the reference compound)” value (GABA; peptide at 20 μM) was 106%. For the same substance, the “Activity of TRPA1 with peptide, expressed as a percentage of the reference compound” value (TRPA1; peptide at 0.2 μM) was 109%, the “Activity of TRPA1 with peptide (percentage of the reference compound)” value (TRPA1; peptide at 20 μM) was 115% and the “Activity of Kir2.1 with peptide, expressed as a percentage of the reference compound” value (Kir2.1; peptide at 0.2 μM) was 102%. The “Activity of Kir2.1 with peptide (percentage of the reference compound)” value (Kir2.1; peptide at 20 μM) was 93%.
